# Experimental data from patent US20250042968A1, “EPHRIN LIGAND MIMETIC PEPTIDES FOR THE TREATMENT OF NEURODEGENERATIVE DISEASES” (University of Miami, priority 2022, published 2025).
# B1: efnB1: pre-clustered ephrin ligand on laminin-coated surface (protein, UniProt P98172 28-346, looked up)
# Ephrin-B1: LAKNLEPVSWSSLNPKFLSGKGLVIYPKIGDKLDIICPRAEAGRPYEYYKLYLVRPEQAAACSTVLDPNVLVTCNRPEQEIRFTIKFQEFSPNYMGLEFKKHHDYYITSTSNGSLEGLENREGGVCRTRTMKIIMKVGQDPNAVTPEQLTTSRPSKEADNTVKMATQAPGSRGSLGDSDGKHETVNQEEKSGPGASGGSSGDPDGFFNSKVALFAAVGAGCVIFLLIIIFLTVLLLKLRKRHRKHTQQRAAALSLSTLASPKGGSGTAGTEPSDIIIPLRTTENNYCPHYEKVSGDYGHPVYIVQEMPPQSPANIYYKV
# modifications: pre-clustered
# notes: pre-clustered ephrin ligand on laminin-coated surface
# B2: efnB3: recombinant Efn ligand containing a His-Tag (R&D Systems), pre-clustered with anti-His antibody (protein, UniProt Q15768 28-226, looked up)
# extracellular domain: LSLEPVYWNSANKRFQAEGGYVLYPQIGDRLDLLCPRARPPGPHSSPNYEFYKLYLVGGAQGRRCEAPPAPNLLLTCDRPDLDLRFTIKFQEYSPNLWGHEFRSHHDYYIIATSDGTREGLESLQGGVCLTRGMKVLLRVGQSPRGGAVPRKPVSEMPMERDRGAAHSLEPGKENLPGDPTSNATSRGAEGPLPPPSMP
# modifications: extracellular domain His tag, pre-clustered
# notes: recombinant Efn ligand containing a His-Tag (R&D Systems), pre-clustered with anti-His antibody
# Tested on: human fetal brain-derived neural stem cells (hNSC)
# Test: hNSC growth on ephrin-ligand repulsive substrates
# Format: cell-based
# Details: for substrate effect on neuronal cell growth: laminin-coated surfaces containing pre-clustered efn ligand
# Method: Fetal brain-derived neural stem cells (hNSC): In order to evaluate the effect of xEFN peptides on human neuronal cells, StemPro hNSC were purchased from ThermoFisher Scientific (Cat. no. A15654) and cultured according to the manufacturer's recommended protocol. Briefly, cells were grown in non-adherent neurosphere suspension cultures in StemPro NSC serum-free media (NSC-SFM) (Cat. no. A10509-01) supplemented with 2 mM GlutaMAX-I supplement, 6 U/mL heparin, and 200 μM ascorbic acid (Sigma-Aldrich, Cat. no. A8960). Culture media was changed every 2 days and cells were passaged every 7 days as undifferentiated hNSC. To induce differentiation into neuronal cells, hNSC neurospheres were dissociated into single-cell suspensions using StemPro Accutase for 5 minutes at 37° C. followed by mechanical pipetting. hNSC were then plated onto Geltrex-coated culture vessels at a concentration of 2×10^4 cells/cm^2 in neuronal differentiation media consisting of NSC media without bFGF or EGF and supplemented with B-27 supplement (ThermoFisher Scientific) for 3 days prior to performing further in vitro assays.
# Glial-bound efn ligands have been associated with mediating the major repulsive milieu for neuronal process in the CNS. […] Moreover, assays on the repulsive nature of efn ligand-presenting surfaces have been a mainstay in axonal guidance studies for many decade. The use of xEFN peptides to antagonize this repulsive signaling from efn ligand substrates was evaluated on human fetal brain-derived neural stem cells (hNSC).
# Recombinant Efn ligands (A2, A4, and B3) containing a His-Tag were purchased from R&D Systems, and were pre-clustered using an anti-His antibody (Genetex) for 30 min. The pre-clustered Efn ligands, or anti-his antibody alone, (control) were then mixed with laminin from human placenta (Sigma-Aldrich) in suspension and used to coat the growth surface of a 24-well plate. […] The entire wells were then scanned using an EVOS FL Auto fluorescent microscope and the images were analyzed in the ImageJ software to calculate cell coverage area.
Molecule,substrate effect on neuronal cell growth,"hNSC confluence on pre-clustered efn ligand substrate (no peptide, compared to the laminin-only control confluence)"
B1,highly repulsive substrates,–
B2,highly repulsive substrates,44.61+/−1.61%
